Laboratory results published in patent publication US8530213B2, “Compositions and methods for using NADH oxidases” (Georgia Tech Research Corporation, priority 2009, dated 2013).
Numbering of substitutions follows the chain as printed. Names and notes keep the numbering of the source.

Columns and labels:
NOX5 [1] = molecular target: T1, NOX5 (Lactiplantibacillus plantarum, UniProt F9UUC2); conditions: H2O2 up to 200 μM, 30 minutes incubation
Procedure: (§1) Inhibition effects of NAD^+ and H2O2 were measured by incubating the enzyme with possible inhibitors for 30 minutes before the assay. For NAD^+, 0.2, 0.3, 0.4 and 0.6 mM were chosen and for H2O2, 25, 50, 100 and 200 μM were investigated.
The effect of H2O2 was studied with a concentration range up to 200 μM, which would be the total amount produced from a standard assay if the enzyme was a hydrogen peroxide producing NADPH oxidase.

NOX5 [2] = molecular target: T1, NOX5; assay: NAD+ product inhibition of NOX5; type: biochemical, Lactobacillus plantarum
Procedure: as §1
Possible product inhibitory effects were investigated by incubating the enzyme with different concentrations of NAD^+. […] (FIG. 6).

[3] = NOX5 mutants assayed at the cell lysate level, NADH activity; type: biochemical
Procedure: (§2) Standard assays were performed at 25° C. in 100 mM TEA buffer (pH 7.5) with 5 mM DTT in cuvettes with either a 1 cm or 1 mm path length, depending on the concentration of substrate. Initial activity was measured by following the absorbance change using a Beckman Coulter DU 800 UV/Vis spectrophotometer at 340 nm. Activity of the enzyme was calculated using an extinction coefficient of NAD(P)H, ε, as 6.22 mM^−1 cm^−1. Unless otherwise noted, a substrate concentration of 0.2 mM NADPH was used for assays. 1 unit (U) of activity is defined as […].
(§3) Single mutations were done on residues G178 and L179 into K, R and K, R, H respectively, and double mutations were also investigated with different combinations of the single mutations. The mutation of G178H was excluded due to the fact that the enzyme would then have two histidines next to each other, creating steric hindrance in the binding pocket. The resulting mutants were expressed on small scale and assayed at the cell lysate level.

[4] = NOX5 mutants assayed at the cell lysate level, NADPH activity; type: biochemical
Procedure: as §2, §3

[5] = Kinetic parameters of purified NADH oxidases, substrate NADH; type: biochemical
Procedure: as §2
[…] This was conducted with an excess of oxygen present in the system. The reaction was initiated by mixing two separate 2× solutions of each the substrate and enzyme. The specific activity was measured, and the kinetic parameters were calculated from that data.
The data was fitted with four different models: non-linear Michaelis-Menten, Lineweaver-Burk, Eadie-Hofstee and Hanes. Through non-linear fitting, kcat and KM of the wild type were measured to be 211.6 s^−1 and 50.2 μM, respectively with an R^2 of 0.998. (FIG. 5).

[6] = Kinetic parameters of purified NADH oxidases, substrate NADPH; type: biochemical; conditions: purified enzyme, excess of oxygen
Procedure: as §2
Depending on the enzyme, a substrate concentration range from 1.5 μM up to 984 μM was investigated to determine the kcat and KM of NADPH. This was conducted with an excess of oxygen present in the system. The reaction was initiated by mixing two separate 2× solutions of each the substrate and enzyme. The specific activity was measured, and the kinetic parameters were calculated from that data.

[7] = Total turnover number (TTN), NADH; type: biochemical; set-up: key: TTN = change in NAD(P)H concentration / amount of enzyme; conditions: for TTN with DTT, NADH: 5 mM DTT, 25° C.; for TTN, NADH: no reducing agents
Procedure: (§4) Standard kinetic assays were performed with small amounts of enzyme. Assays were carried out for two to three hours until there was no more enzymatic conversion of the substrate.
Total turnover number (TTN) is a measurement of catalyst productivity. For biocatalysts, TTN is defined as the total amount of product produced over the lifetime of an enzyme. […] […] (data not shown).
(§5) This experiment was repeated to see if the presence of reducing agents had any effect on the total turnover number. The stock solution of enzyme was dialyzed against 250 mL of 10 mM Tris-HCl (pH 7.5) for two hours. The solution was then exchanged and dialyzed for an additional 2 hours. The TTN was then measured with the dialyzed enzyme with and without reducing agents. DTT and β-mercaptoethanol (β-ME) were used at a concentration of 5 mM. The TTN for the sample with no reducing agents, DTT and β-ME were 128,000, 168,000 and 107,000, respectively.

[8] = Total turnover number (TTN), NADPH; type: biochemical
Procedure: as §4
Total turnover number (TTN) is a measurement of catalyst productivity. For biocatalysts, TTN is defined as the total amount of product produced over the lifetime of an enzyme. Calculations of TTN were performed by dividing the change of NADPH concentration by the amount of enzyme that was used for each assay. […] (data not shown).
as §5

[9] = purified enzyme, excess of oxygen

T1 sequence (F9UUC2 entry or part of it): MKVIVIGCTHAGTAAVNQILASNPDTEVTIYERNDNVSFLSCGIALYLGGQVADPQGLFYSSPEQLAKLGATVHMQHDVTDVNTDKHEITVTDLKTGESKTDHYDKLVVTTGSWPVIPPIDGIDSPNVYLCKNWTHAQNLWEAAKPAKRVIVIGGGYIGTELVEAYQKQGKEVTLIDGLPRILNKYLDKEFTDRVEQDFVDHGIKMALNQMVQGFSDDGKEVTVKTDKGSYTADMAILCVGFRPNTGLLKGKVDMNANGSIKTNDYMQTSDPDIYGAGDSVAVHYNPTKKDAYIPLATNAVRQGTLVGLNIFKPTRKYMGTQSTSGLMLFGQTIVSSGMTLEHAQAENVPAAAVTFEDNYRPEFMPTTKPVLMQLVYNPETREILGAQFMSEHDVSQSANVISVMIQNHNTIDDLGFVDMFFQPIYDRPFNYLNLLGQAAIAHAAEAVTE

For `OO` [H2O2, hydrogen peroxide], the “change in the initial specific activity of the enzyme” value (NOX5 [1]) was “no change”.

With `NC(=O)c1ccc[n+]([C@@H]2O[C@H](COP(=O)([O-])OP(=O)(O)OC[C@H]3O[C@@H](n4cnc5c(N)ncnc54)[C@H](O)[C@@H]3O)[C@@H](O)[C@H]2O)c1` [NAD^+] the Ki (NOX5 [2]; 0.2, 0.3, 0.4 and 0.6 mM NAD^+, 30 minutes incubation) was 289 µM and the inhibition pattern (NOX5 [2]; Hanes-Woolf plot) was “non-competitive”.

B1: L179R: NADH oxidase derived from Lactobacillus plantarum, L179R mutant (protein, listed as Lactobacillus plantarum)
chain: MKVIVIGCTHAGTAAVNQILASNPDTEVTIYERNDNVSFLSCGIALYLGGQVADPQGLFYSSPEQLAKLGATVHMQHDVTDVNTDKHEITVTDLKTGESKTDHYDKLVVTTGSWPVIPPIDGIDSPNVYLCKNWTHAQNLWEAAKPAKRVIVIGGGYIGTELVEAYQKQGKEVTLIDGRPRILNKYLDKEFTDRVEQDFVDHGIKMALNQMVQGFSDDGKEVTVKTDKGSYTADMAILCVGFRPNTGLLKGKVDMNANGSIKTNDYMQTSDPDIYGAGDSVAVHYNPTKKDAYIPLATNAVRQGTLVGLNIFKPTRKYMGTQSTSGLMLFGQTIVSSGMTLEHAQAENVPAAAVTFEDNYRPEFMPTTKPVLMQLVYNPETREILGAQFMSEHDVSQSANVISVMIQNHNTIDDLGFVDMFFQPIYDRPFNYLNLLGQAAIAHAAEAVTE
In the case of B1, the NADH activity [3] is reported as 7.32 U/mg, the NADPH activity [4] is reported as 1.76 U/mg and the “improvement of kcat/KM (NADH) over the wild-type” value [5] is reported as “more than 4 fold”. The Km [5, 9] was 6.56 µM, the “kcat, NADH” value [5, 9] was 122.0 s⁻¹ and the Km [6] was 490 µM. The “kcat, NADPH” value [6] was 146.4 s⁻¹, the “TTN with DTT, NADH” value [7] was 149,000 and the “TTN, NADH” value [7] was 181,000.

B2: L179K: NADH oxidase derived from Lactobacillus plantarum, L179K mutant (protein, listed as Lactobacillus plantarum)
chain: B1 chain with R179K
Work on B2 yielded an NADH activity [3] of 5.14 U/mg and an NADPH activity [4] of 1.03 U/mg.

B3: G178K/L179R: NADH oxidase derived from Lactobacillus plantarum, G178K/L179R mutant (protein, listed as Lactobacillus plantarum)
chain: B1 chain with G178K
Work on B3 yielded an NADH activity [3] of 2.00 U/mg and an NADPH activity [4] of 5.68 U/mg.

B4: G178R/L179R: NADH oxidase derived from Lactobacillus plantarum, G178R/L179R mutant (protein, listed as Lactobacillus plantarum)
chain: B1 chain with G178R
With B4 the NADH activity [3] was 2.64 U/mg, the NADPH activity [4] was 6.00 U/mg and the “kcat, NADH” value [5, 9] was 34.0 s⁻¹. The Km [6] was 9.76 µM, the “kcat, NADPH” value [6] was 114.1 s⁻¹ and the “TTN with DTT, NADH” value [7] was 128,000. The “TTN, NADH” value [7] was 108,000, the “TTN, NADPH” value ([8]; no reducing agents) was 105,000 and the “TTN with DTT, NADPH” value ([8]; with DTT) was 118,000.

B5: L179H: NADH oxidase derived from Lactobacillus plantarum, L179H mutant (protein, listed as Lactobacillus plantarum)
chain: B1 chain with R179H
Molecule B5 has an NADH activity [3] of 1.37 U/mg and an NADPH activity [4] of 0.64 U/mg.

B6: G178K/L179H: NADH oxidase derived from Lactobacillus plantarum, G178K/L179H mutant (protein, listed as Lactobacillus plantarum)
chain: B1 chain with G178K, R179H
For B6, the NADH activity [3] was 1.24 U/mg and the NADPH activity [4] was 3.85 U/mg.

B7: G178K: NADH oxidase derived from Lactobacillus plantarum, G178K mutant (protein, listed as Lactobacillus plantarum)
chain: B1 chain with G178K, R179L
B7 gave an NADH activity [3] of 3.92 U/mg and an NADPH activity [4] of 0.46 U/mg.

B8: G178R: NADH oxidase derived from Lactobacillus plantarum, G178R mutant (protein, listed as Lactobacillus plantarum)
chain: B1 chain with G178K, R179L
In the case of B8, the NADH activity [3] is reported as 1.51 U/mg and the NADPH activity [4] is reported as 0.23 U/mg.

B9: G178K/L179K: NADH oxidase derived from Lactobacillus plantarum, G178K/L179K mutant (protein, listed as Lactobacillus plantarum)
chain: B1 chain with G178K, R179K
For B9, the NADH activity [3] was 0.84 U/mg and the NADPH activity [4] was 3.11 U/mg.

B10: G178R/L179H: NADH oxidase derived from Lactobacillus plantarum, G178R/L179H mutant (protein, listed as Lactobacillus plantarum)
chain: B1 chain with G178R, R179H
In the case of B10, the NADH activity [3] is reported as 0.64 U/mg and the NADPH activity [4] is reported as 0.52 U/mg.

B11: G178R/L179K: NADH oxidase derived from Lactobacillus plantarum, G178R/L179K mutant (protein, listed as Lactobacillus plantarum)
chain: B1 chain with G178R, R179K
Molecule B11 has an NADH activity [3] of 0.94 U/mg and an NADPH activity [4] of 3.56 U/mg.

B12: L. lactis NOX2: NADH oxidase from Lactococcus lactis, comparison enzyme (protein, UniProt A2RIB7 1-446, looked up)
NADH oxidase: MKIVVIGTNHAGIATANTLLEQYPGHEIVMIDRNSNMSYLGCGTAIWVGRQIEKPDELFYAKAEDFEAKGVKILTETEVSEIDFANKKVYAKTKSDDEIIEAYDKLVLATGSRPIIPNLPGKDLKGIHFLKLFQEGQAIDAEFAKEKVKRIAVIGAGYIGTEIAEAAKRRGKEVLLFDAENTSLASYYDEEFAKGMDENLAQHGIELHFGELAKEFKANEEGYVSQIVTNKATYDVDLVINCIGFTANSALASDKLATFKNGAIKVDKHQQSSDPDVYAVGDVATIYSNALQDFTYIALASNAVRSGIVAGHNIGGKELESVGVQGSNGISIFGYNMTSTGLSVKAAKKLGLEVSFSDFEDKQKAWFLHENNDSVKIRIVYETKSRRIIGAQLASKSEIIAGNINMFSLAIQEKKTIDELALLDLFFLPHFNSPYNYMTVAALNAK
For B12, the “TTN with DTT, NADH” value [7] was 78,480 and the “TTN, NADH” value [7] was 38,740.
